B1: 35-E11: P450 BM-3 variant, SEQ ID NO:7: 53-5H substitutions plus E464G and I710T (protein)
chain: TIKEMPQPKTFGELKNLPLLNTDKPVQALMKIADELGEIFKFEAPGCVTRYLSSQRLIKEACDESRFDKNLSQALKFFRDFSGDGLFTSWTHEINWKKAHNILLPSFSQQAMKGYHAMMVDIAVQLVQKWERLNADEHIEVSEDMTRLTLDTIGLCGFNYRFNSFYRDQPHPFIISMVRALDEVMNKLQRANPDDPAYDENKRQCQEDIKVMNDLVDKIIADRKARGEQSDDLLTQMLNGKDPETGEPLDDGNISYQIITFLIAGHETTSGLLSFALYFLVKNPHVLQKVVEEAARVLVDPVPSYKQVKQLKYVGMVLNEALRLWPTFPAFSLYAKEDTVLGGEYPLEKGDEVMVLIPQLHRDKTIWGDDVEEFRPERFENPSAIPQHAFKPFGNGQRACIGQQFALHEATLVLGMMLKHFDFEDHTNYELDIKETLTLKPEGFVVKAKSKKIPLGGIPSPSTGQSAKKVRKKAENAHNTPLLVLYGSNMGTAEGTARDLADIAMSKGFAPQVATLDSHAGNLPREGAVLIVTASYNGHPPDNAKQFVDWLDQASADEVKGVRYSVFGCGDKNWATTYQKVPAFIDETLAAKGAENIADRGEADASDDFEGTYEEWREHMWSDVAAYFNLDIENSEDNKSTLSLQFVDSAADMPLAKMHGAFSTNVVASKELQQPGSARSTRHLEIELPKEASYQEGDHLGVIPRNYEGTVNRVTARFGLDASQQIRLEAEEEKLAHLPLAKTVSVEELLQYVELQDPVTRTQLRAMAAKTVCPPHKVELEALLEKQAYKEQVLAKRLTMLELLEKYPACEMKFSEFIALLPSIRPRYYSISSSPRVDEKQASITVSVVSGEAWSGYGEYKGIASNYLAELQEGDTITCFISTPQSEFTLPKDPETPLIMVGPGTGVAPFRGFVQARKQLKEQGQSLGEAHLYFGCRSPHEDYLYQEELENAQSEGIITLHTAFSRMPNQPKTYVQHVMEQDGKKLIELLDQGAHFYICGDGSQMAPAVEATLMKSYADVHQVSEADARLWLQQLEEKGRYAKDVWAG
modifications: mutant P450 35-E11 protein sequence
B2: Wild-type BM-3: wild-type cytochrome P450 BM-3 from Bacillus megaterium, SEQ ID NO:1 (protein, listed as Bacillus megaterium)
chain: TIKEMPQPKTFGELKNLPLLNTDKPVQALMKIADELGEIFKFEAPGRVTRYLSSQRLIKEACDESRFDKNLSQALKFVRDFAGDGLFTSWTHEKNWKKAHNILLPSFSQQAMKGYHAMMVDIAVQLVQKWERLNADEHIEVPEDMTRLTLDTIGLCGFNYRFNSFYRDQPHPFITSMVRALDEAMNKLQRANPDDPAYDENKRQFQEDIKVMNDLVDKIIADRKASGEQSDDLLTHMLNGKDPETGEPLDDENIRYQIITFLIAGHETTSGLLSFALYFLVKNPHVLQKAAEEAARVLVDPVPSYKQVKQLKYVGMVLNEALRLWPTAPAFSLYAKEDTVLGGEYPLEKGDELMVLIPQLHRDKTIWGDDVEEFRPERFENPSAIPQHAFKPFGNGQRACIGQQFALHEATLVLGMMLKHFDFEDHTNYELDIKETLTLKPEGFVVKAKSKKIPLGGIPSPSTEQSAKKVRKKAENAHNTPLLVLYGSNMGTAEGTARDLADIAMSKGFAPQVATLDSHAGNLPREGAVLIVTASYNGHPPDNAKQFVDWLDQASADEVKGVRYSVFGCGDKNWATTYQKVPAFIDETLAAKGAENIADRGEADASDDFEGTYEEWREHMWSDVAAYFNLDIENSEDNKSTLSLQFVDSAADMPLAKMHGAFSTNVVASKELQQPGSARSTRHLEIELPKEASYQEGDHLGVIPRNYEGIVNRVTARFGLDASQQIRLEAEEEKLAHLPLAKTVSVEELLQYVELQDPVTRTQLRAMAAKTVCPPHKVELEALLEKQAYKEQVLAKRLTMLELLEKYPACEMKFSEFIALLPSIRPRYYSISSSPRVDEKQASITVSVVSGEAWSGYGEYKGIASNYLAELQEGDTITCFISTPQSEFTLPKDPETPLIMVGPGTGVAPFRGFVQARKQLKEQGQSLGEAHLYFGCRSPHEDYLYQEELENAQSEGIITLHTAFSRMPNQPKTYVQHVMEQDGKKLIELLDQGAHFYICGDGSQMAPAVEATLMKSYADVHQVSEADARLWLQQLEEKGRYAKDVWAG

Columns and labels:
Assay type in all cases: biochemical
[1] = Reactions on alkanes, total turnovers (Table 18): decane; conditions: decane (10 C atoms); for % rel. act.: TTN normalized to the highest value of the variant's series; for TTN: total turnovers, standardized reaction conditions
Procedure: (§1) Reactions on alkanes. Reactions with alkanes from pentane to decane were carried out at 3 mL-scale using 100 mM KPi pH 8.0 buffer containing 2% ethanol (to allow alkane solubilization) and purified protein. 2.5 mL KPi buffer were added with 60 μL of 90 mM alkane solution in ethanol (final conc.=1.8 mM), 150 μL enzyme solution at 1 μM (final conc.=50 nM), and 300 μL NADPH regeneration solution (100 units/mL isocitrate dehydrogenase, 70 mg/mL isocitrate, 1.5 mg/ml NADP^+). Vials were sealed and stirred for 24 hours at 4° C. 1 mL-aliquot of the reaction was removed, added with 10 μl internal standard (25 mM 1-bromohexane in ethanol), and extracted with 200 μl chloroform (30 sec vortexing, 1 min centrifugation at 10000 g). The organic phase was removed and analyzed by gas chromatography. Reactions with ethane, propane, and butane were carried out as described for longer alkanes with the only difference that alkane-saturated KPi buffer was used. Propane reactions with variants from HL5 and L9 libraries were performed on 1 mL-scale reaction using 20 nM enzyme to reduce oxygen limitation. Propane and butane reactions were analyzed by direct injection of reaction solution on the GC using 1-pentanol as internal standard. Ethane reaction products were functionalized (see below) and analyzed by GC using 1-butanol as internal standard. All measurements were performed in triplicate.
(§2) Products from alkane reactions were identified and quantified by gas chromatography using authentic standards and calibration curves with internal standards. For the reactions with alkanes from pentane to decane, GC analyses were carried out using a Shimadzu GC-17A gas chromatograph, Agilent HP5 column (30 m×0.32 mm×0.1 μm film), 1 μL injection, FID detector, and the following separation program: 250° C. inlet, 250° C. detector, 50° C. oven for 3 min, 5° C./min gradient to 100° C., 25° C./min gradient to 230° C., and 230° C. for 3 min. For butane and propane (TTN) reactions, GC analyses were carried out using a Hewlett-Packard 5890 Series II Plus gas chromatograph, Supelco SPB-1 column (60 m×0.52 mm×0.5 μm film), 0.5 μL injection, FID detector, and the following separation program: 250° C. inlet, 275° C. detector, 80° C. oven for 2 min, 10° C./min gradient to 110° C., 25° C./min gradient to 275° C., and 275° C. for 2.5 min. For ethane and propane (rate) reactions, analysis of reaction mixtures was carried out by derivatization to alkyl nitrites followed by GC-ECD analysis. For laurate, reaction product analysis was carried out by derivatization with N-methyl-N-trimethylsilylheptafluorobutyramide followed by extraction with hexane. Organic solutions were analyzed by FID-GC.
(§3) TTNs for each variant-substrate pair were determined using standardized reaction conditions (identical enzyme and substrate concentration, incubation time, cofactor regeneration system) (Table 18). TTN values were used to assess performance because TTN is a cumulative measure of both catalytic and coupling efficiency and because mutants were selected based on improvement in this property. To facilitate comparison among the variants, TTNs were normalized to the highest value in the series (MTN=Maximal Turnover Number) and plotted for the increasing-sized substrates (FIG. 38). A gradual shift of the enzyme's substrate preference during laboratory evolution is evident from these profiles. The marginal activity of wild-type BM3 on these substrates (MTN=150) is restricted to the long-chain alkanes, where it is a promiscuous function of BM3's high C12-C20 fatty acid hydroxylase activity. In the first evolutionary intermediates, substrate preference centers on medium-chain alkanes […], reflecting their selection for activity on octane. In 35E11, selected for activity on propane, preference still centers on C6-C8 alkanes but now extends towards the shorter ones, including propane. Propane activity becomes prevalent with the transition from variant ETS8 to 19A12. […]

[2] = Kinetic measurements (Michaelis-Menten): propane; conditions: N.a. = not active
Procedure: Rate measurements. Initial rates of product formation were determined at 25° C. in 100 mM KPi pH 8.0 buffer using purified protein (100 nM) and a substrate concentration of 1.6 mM. In a 5 mL-vial, 20 μL of alkane solution (in ethanol) were dissolved in 400 μL KPi buffer, to which 500 μL enzyme solution at 100-200 nM was added. Reaction was initiated by adding 100 μL of 5 mM NADPH solution, followed by stirring at 300 rpm for 1 minute, and quenched by adding 200 μL chloroform and stirring at 800 rpm for 10 sec. Solutions were transferred to an Eppendorf tube, to which internal standard (10 μL 25 mM 1-bromohexane in ethanol) was added. Tubes were vortexed for 10 sec and centrifuged for 30 sec at 10,000 g. Organic phase was removed and analyzed by GC. For propane, reactions were carried out in a 5 mL-scale using 100-400 nM purified enzyme, propane-saturated buffer (propane concentration≈1.6 mM) and a final NADPH concentration of 500 μM. Reactions were stopped by addition of 200 μL H2SO4 conc. and analyzed by derivatization to alkyl nitrites followed by GC-ECD analysis as described below.
Kinetic measurements. […] Reactions were carried out in a 5 mL-scale using 100-400 nM purified enzyme and a final NADPH concentration of 1 mM. After 30 seconds, reactions were stopped by addition of 200 μL H2SO4 conc. and analyzed by GC as described below. Propane leakage during the experiment was neglected in reason of short measuring time. All measurements were performed in triplicate. Kinetic parameters were estimated from least-squares nonlinear regression to the Michaelis-Menten equation,
[formula] where v is the initial velocity, S is the substrate concentration, Vmax is the maximum velocity, and Km is the apparent Michaelis constant for the substrate.
as §2, with “For ethane and propane (rate) reactions, analysis of reaction mixtures was carried out by derivatization to alkyl nitrites followed by GC-ECD analysis. For laurate, reaction product analysis was carried out by derivatization with N-methyl-N-trimethylsilylheptafluorobutyramide followed by extraction with hexane.” left out

[3] = Reactions on alkanes, total turnovers (Table 18): nonane; conditions: nonane (9 C atoms); for % rel. act.: TTN normalized to the highest value of the variant's series; for TTN: total turnovers, standardized reaction conditions
Procedure: as §1, §2, §3

[4] = Reactions on alkanes, total turnovers (Table 18): octane; conditions: octane (8 C atoms); for % rel. act.: TTN normalized to the highest value of the variant's series; for TTN: total turnovers, standardized reaction conditions
Procedure: as §1, §2, §3

[5] = Reactions on alkanes, total turnovers (Table 18): butane; conditions: butane (4 C atoms); for TTN: total turnovers, standardized reaction conditions
Procedure: as §1, §2, §3

[6] = Reactions on alkanes, total turnovers (Table 18): heptane; conditions: heptane (7 C atoms); for % rel. act.: TTN normalized to the highest value of the variant's series; for TTN: total turnovers, standardized reaction conditions
Procedure: as §1, §2, §3

[7] = Reactions on alkanes, total turnovers (Table 18): pentane; conditions: pentane (5 C atoms); for % rel. act.: TTN normalized to the highest value of the variant's series; for TTN: total turnovers, standardized reaction conditions
Procedure: as §1, §2, §3

Molecule	% rel. act. [1] [%]	TTN [1]	Km [2] [µM]	kcat [2] [s⁻¹]	% rel. act. [3] [%]	TTN [3]	% rel. act. [4] [%]	TTN [4]	TTN [5]	% rel. act. [6] [%]	TTN [6]	% rel. act. [7] [%]	TTN [7]	% rel. act. ([5]; TTN normalized to the highest value of the variant's series) [%]
B1	13.5	860 ± 223	820 ± 95	4.08 ± 0.417	52.6	3350 ± 133	93.7	5950 ± 323	5150 ± 104	81.4	5170 ± 148	75.6	4800 ± 174	
B2	100.0	160 ± 95			68.8	110 ± 10	18.8	30 ± 42	0	12.5	20 ± 5	0.0	0	0.0
